Consider 125 sequences from the supplement of paper PMC9112550, “Optimization of the antimicrobial peptide Bac7 by deep mutational scanning” (BMC Biology, 2022).

The test system of the data set is Escherichia coli TOP10. In words: shrunken log2 fold change of peptide-encoding DNA abundance (4.5 h post-induction vs induction); higher = less antimicrobial activity (less host growth inhibition). The note with it: time post-induction: 4.5 h; library: site-saturation at positions 5, 18, 19, 20.
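Also: peptides expressed intracellularly from a pBAD plasmid library in pooled LB shake-flask culture, induced with 0.3% L-arabinose, DNA abundance read by NGS, three biological replicates, DESeq2 with apeglm shrinkage.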

Take RRIRYRPPRLPRPRPRPEYNPRP: the “shrunken log2 fold change” value is -0.15. For the sequence RRIRPRPPRLPRPRPRPQYTPRP, the “shrunken log2 fold change” value was -0.813. As for RRIRRRPPRLPRPRPRPHEMPRP, the “shrunken log2 fold change” value was 0.489. To RRIRRRPPRLPRPRPRPGMMPRP belongs 0.257; to RRIRQRPPRLPRPRPRPQDAPRP, -0.253; to RRIRWRPPRLPRPRPRPVIMPRP, -0.273. To RRIRYRPPRLPRPRPRPWARPRP belongs -0.116; to RRIRRRPPRLPRPRPRPNMRPRP, 0.104. The figure for RRIRRRPPRLPRPRPRPKESPRP is 0.023. With RRIRKRPPRLPRPRPRPVELPRP, the “shrunken log2 fold change” value was determined as 0.111. To RRIRLRPPRLPRPRPRPREYPRP belongs 0.289; to RRIRERPPRLPRPRPRPQVYPRP, -0.023; to RRIRSRPPRLPRPRPRPMVCPRP, 0.188. RRIRFRPPRLPRPRPRPCTKPRP: the “shrunken log2 fold change” value is -0.229. The figure for RRIRMRPPRLPRPRPRPWLFPRP is 0.457. The figure for RRIRVRPPRLPRPRPRPLTSPRP is 0.0775. Consider RRIRPRPPRLPRPRPRPEMFPRP, for which the “shrunken log2 fold change” value was -0.112. In the case of RRIRYRPPRLPRPRPRPHYFPRP, the “shrunken log2 fold change” value was -0.833. To RRIRFRPPRLPRPRPRPQEGPRP belongs -0.00638; to RRIRFRPPRLPRPRPRPDQDPRP, -0.00191.

RRIRERPPRLPRPRPRPHSCPRP: the “shrunken log2 fold change” value came to 0.00997. In the case of RRIRNRPPRLPRPRPRPLTGPRP, the “shrunken log2 fold change” value came out at 0.0323. On to RRIRVRPPRLPRPRPRPHTPPRP, for which the “shrunken log2 fold change” value was -0.271. As for RRIRARPPRLPRPRPRPWQPPRP, the “shrunken log2 fold change” value was found to be 0.0351. To RRIRYRPPRLPRPRPRPYTLPRP belongs -0.213; to RRIRYRPPRLPRPRPRPSSKPRP, -1; to RRIRARPPRLPRPRPRPTMMPRP, 0.496.

With RRIRRRPPRLPRPRPRPSISPRP, the “shrunken log2 fold change” value is -0.774. The figure for RRIRFRPPRLPRPRPRPSGRPRP is 0.0486; for RRIRSRPPRLPRPRPRPCMWPRP it is 0.0267. With RRIRFRPPRLPRPRPRPANFPRP, the “shrunken log2 fold change” value stood at 0.151. To RRIRQRPPRLPRPRPRPHNAPRP belongs -0.0184; to RRIRARPPRLPRPRPRPCFCPRP, 0.25. RRIRGRPPRLPRPRPRPRISPRP: the “shrunken log2 fold change” value was 0.353. The figure for RRIRLRPPRLPRPRPRPFDCPRP is 0.00355. To RRIRCRPPRLPRPRPRPGQNPRP belongs 0.261. To RRIRSRPPRLPRPRPRPVPMPRP belongs 1.32. As for RRIRQRPPRLPRPRPRPALMPRP, the “shrunken log2 fold change” value was found to be 0.0376. Regarding RRIRRRPPRLPRPRPRPLCSPRP, the “shrunken log2 fold change” value is -0.255. The figure for RRIRFRPPRLPRPRPRPLSWPRP is 0.245; for RRIRDRPPRLPRPRPRPLRIPRP it is 0.168. The figure for RRIRERPPRLPRPRPRPEIHPRP is -0.0198. In the case of RRIRKRPPRLPRPRPRPNPPPRP, the “shrunken log2 fold change” value was determined as 0.0342. As to RRIRTRPPRLPRPRPRPQELPRP, the “shrunken log2 fold change” value is 0.0724. In the case of RRIRSRPPRLPRPRPRPQMRPRP, the “shrunken log2 fold change” value came out at 0.691. As to RRIRERPPRLPRPRPRPVNFPRP, the “shrunken log2 fold change” value is -0.0265. To RRIRTRPPRLPRPRPRPIQCPRP belongs -0.521.

Take RRIRPRPPRLPRPRPRPGLNPRP: the “shrunken log2 fold change” value stood at 0.0174.

Turning to RRIRPRPPRLPRPRPRPDDKPRP, the “shrunken log2 fold change” value is -0.0729.

Turning to RRIRCRPPRLPRPRPRPLTNPRP, the “shrunken log2 fold change” value is -0.454. Regarding RRIRARPPRLPRPRPRPSKPPRP, the “shrunken log2 fold change” value was -0.281. The figure for RRIRDRPPRLPRPRPRPQKNPRP is -0.431; for RRIRPRPPRLPRPRPRPPDQPRP it is 0.601; for RRIRQRPPRLPRPRPRPVEFPRP it is 0.0188. To RRIRLRPPRLPRPRPRPVSVPRP belongs -0.118; to RRIRMRPPRLPRPRPRPDFPPRP, -0.0976; to RRIRSRPPRLPRPRPRPLNQPRP, 0.479. To RRIRQRPPRLPRPRPRPAEWPRP belongs -0.357; to RRIRCRPPRLPRPRPRPQQCPRP, -0.219. Turning to RRIRTRPPRLPRPRPRPKFMPRP, the “shrunken log2 fold change” value was -0.0326.

Regarding RRIRHRPPRLPRPRPRPDRHPRP, the “shrunken log2 fold change” value was -0.159. The figure for RRIRSRPPRLPRPRPRPSQKPRP is -0.158; for RRIRIRPPRLPRPRPRPPNRPRP it is -0.462; for RRIRNRPPRLPRPRPRPAGMPRP it is -0.126. Regarding RRIRARPPRLPRPRPRPEFMPRP, the “shrunken log2 fold change” value turned out to be 0.115. To RRIRIRPPRLPRPRPRPCTWPRP belongs -0.227; to RRIRDRPPRLPRPRPRPCTHPRP, -0.0766. The figure for RRIRGRPPRLPRPRPRPPNCPRP is 0.266. Regarding RRIRPRPPRLPRPRPRPDQLPRP, the “shrunken log2 fold change” value was -0.0341. For RRIRTRPPRLPRPRPRPQPPPRP, the “shrunken log2 fold change” value was 0.357. The figure for RRIRDRPPRLPRPRPRPPFDPRP is 0.422; for RRIRGRPPRLPRPRPRPQILPRP it is -0.0843; for RRIRERPPRLPRPRPRPACIPRP it is -0.0281. The figure for RRIRIRPPRLPRPRPRPHIVPRP is -0.0875. To RRIRFRPPRLPRPRPRPEDTPRP belongs 0.144; to RRIRGRPPRLPRPRPRPSRQPRP, 0.133. For the sequence RRIRDRPPRLPRPRPRPGYSPRP, the “shrunken log2 fold change” value is -0.591. To RRIRWRPPRLPRPRPRPWIPPRP belongs -0.0989; to RRIRIRPPRLPRPRPRPIMMPRP, -0.132; to RRIRPRPPRLPRPRPRPYGYPRP, -0.138. With RRIRMRPPRLPRPRPRPQRAPRP, the “shrunken log2 fold change” value is 0.943. For the sequence RRIRCRPPRLPRPRPRPWYIPRP, the “shrunken log2 fold change” value is -0.331.

Turning to RRIRSRPPRLPRPRPRPMVEPRP, the “shrunken log2 fold change” value turned out to be 0.884. The figure for RRIRRRPPRLPRPRPRPNCKPRP is 0.155; for RRIRQRPPRLPRPRPRPCEWPRP it is 0.000996.

As to RRIRKRPPRLPRPRPRPGVHPRP, the “shrunken log2 fold change” value turned out to be 0.195.

In the case of RRIRKRPPRLPRPRPRPLWQPRP, the “shrunken log2 fold change” value stood at 0.442. To RRIRKRPPRLPRPRPRPCWQPRP belongs 0.154; to RRIRMRPPRLPRPRPRPDFDPRP, 0.15. The figure for RRIRVRPPRLPRPRPRPGHLPRP is -0.185. The figure for RRIRHRPPRLPRPRPRPKRKPRP is 0.0863; for RRIRMRPPRLPRPRPRPFDMPRP it is -0.192.

Take RRIRNRPPRLPRPRPRPHVIPRP: the “shrunken log2 fold change” value is -0.205.

RRIRERPPRLPRPRPRPNCWPRP: the “shrunken log2 fold change” value came out at 0.659. The figure for RRIRVRPPRLPRPRPRPWFIPRP is -0.329; for RRIRWRPPRLPRPRPRPLHFPRP it is 0.136. To RRIRLRPPRLPRPRPRPAGCPRP belongs 0.263. To RRIRHRPPRLPRPRPRPVYPPRP belongs -0.529; to RRIRPRPPRLPRPRPRPWHNPRP, -0.809; to RRIRVRPPRLPRPRPRPHKFPRP, 0.0807. Turning to RRIRPRPPRLPRPRPRPCEGPRP, the “shrunken log2 fold change” value turned out to be 0.156. To RRIRSRPPRLPRPRPRPPCTPRP belongs -0.174; to RRIRKRPPRLPRPRPRPKHTPRP, 0.281; to RRIRIRPPRLPRPRPRPVRHPRP, -0.0859.

Take RRIRDRPPRLPRPRPRPWCSPRP: the “shrunken log2 fold change” value was -0.348. The figure for RRIRQRPPRLPRPRPRPFKEPRP is 0.343; for RRIRDRPPRLPRPRPRPGWRPRP it is 0.832.

For RRIRPRPPRLPRPRPRPLGPPRP, the “shrunken log2 fold change” value was found to be 0.153. The figure for RRIRIRPPRLPRPRPRPQAYPRP is 0.0364; for RRIRRRPPRLPRPRPRPGRAPRP it is 0.648; for RRIRTRPPRLPRPRPRPPAHPRP it is 0.252. On to RRIRARPPRLPRPRPRPMCDPRP, for which the “shrunken log2 fold change” value is 0.526. The figure for RRIRLRPPRLPRPRPRPYTRPRP is -0.0648; for RRIRSRPPRLPRPRPRPVSVPRP it is 0.0162. The figure for RRIRNRPPRLPRPRPRPFNSPRP is -0.0382. Consider RRIRNRPPRLPRPRPRPPHMPRP, for which the “shrunken log2 fold change” value was -0.217. Take RRIRWRPPRLPRPRPRPNWMPRP: the “shrunken log2 fold change” value is -0.11. The figure for RRIRGRPPRLPRPRPRPWCAPRP is 0.407; for RRIRNRPPRLPRPRPRPWFYPRP it is -0.154.

Turning to RRIRSRPPRLPRPRPRPGDAPRP, the “shrunken log2 fold change” value stood at 0.298.

As for RRIRHRPPRLPRPRPRPVTIPRP, the “shrunken log2 fold change” value was -0.311. On to RRIRRRPPRLPRPRPRPDTIPRP, for which the “shrunken log2 fold change” value was -0.15. The figure for RRIRERPPRLPRPRPRPHMWPRP is -0.0491; for RRIRKRPPRLPRPRPRPIQQPRP it is 0.25; for RRIRERPPRLPRPRPRPKGCPRP it is -0.0587.
